Tests used:
[1] = Terpene synthase activity assay with GPP; assay type: biochemical; conditions: TPS expressed in E. coli; 10 μM GPP, overnight at 30° C., SPME GC-MS
Description: Putative terpene synthase genes were synthesized by the TWIST Co., and cloned into Novagen pET-28a(+) with a 6×His tag at its' N-terminus. The recombinant plasmid was then sequenced for authentication and transformed into BL21(DE3) pLysS and pLysE strains of E. coli (Agilent Technologies) for heterologous expression. An overnight culture was used to inoculate a 20-200 mL culture, induced with 0.1 mM IPTG at an OD 600 nm >0,8 for initiation of recombinant protein translation then incubated at 18° C. and 250 RPM overnight. The cells were collected by centrifugation and the recombinant enzymes were extracted either as a crude extract or purified on a Ni-NTA agarose resin as previously described [Gonda I. et al., The Plant Journal (2013) 61, 458-472].
To determine the terpene synthase catalytic activity, reaction mixtures containing 100 μl of protein extract or purified protein were incubated overnight at 30° C. with either 10 μM geranyl diphosphate (GPP) or farnesyl diphosphate (FPP), in a final volume of 200 μl using a buffer containing 50 mM bis-tris, pH 6.9, 1 mM DTT, 10% (v/v) glycerol, 0.1 mM of MnCl2 and 10 mM of MgCl2. The volatiles produced were extracted by solid-phase microextraction (SPME) according to the methodology previously described [Iijima Y. et al., Plant Physiol (2004) 136: 3724-3736]. As controls, reactions were carried out without the cofactors MnCl2 and MgCl2, or protein extracts were heat inactivated by incubation at 100° C. for 5 minutes, or a short peptide product of an empty pET100 vector was utilized.
For solid-phase microextraction (SPME) analysis, a 57298-U SPME fiber assembly Divinylbenzene/Carboxen/Polydimethylsiloxane (DVB/CAR/PDMS, Supelco) needle size 23 ga, StableFlex, was used with an autosampler and analyzed by GC-MS as previously described [Davidovich-Rikanati R. et al., Nature Biotech (2007) 25:899-901; Davidovich-Rikanati R. et al., Plant J (2008) 56:228-238]. The SPME fiber were adsorbed for 30 min. by automatic HS-SPME at 50° C. followed by injection of the fiber into a GC-MS injection port for 5 min. (splitless), for desorption of the volatiles. Chiral separation was conducted on a Restek Rt™-bDEXsm column (30 m length 0.25 mm i.d., 0.25 μm film thickness, 2,3-di-O-methyl-6-O-tert-butyl dimethylsilyl beta cyclodextrin added into 14% cyanopropylphenyl/86% dimethyl polysiloxane). Helium (0.8 ml min-1) was used as a carrier gas with splitless injection. The injector temperature was 250° C., and the detector temperature was 230° C. The following conditions were used: initial temperature 40° C. for 5 min., followed by a ramp of 2° C./min. to 110° C., and 10° C./min up to 230° C. (5 min.). A quadrupole mass detector with electron ionization at 70 eV was used to acquire the MS data in the range of 41 to 350 m/z. The identification of the volatiles was assigned by comparison spectral data with the W10N11 and HPCH2205 GC-MS libraries and with authentic standard when available.

[2] = system: yeast cells; assay: Yeast growth (turbidity A600) in the presence of CBD; assay type: cell-based, Saccharomyces cerevisiae (strain Y1HGold); conditions: 0.5 mM CBD, 7-12 hours, FIG. 2
Description: The genes were expressed in yeast and tobacco. For yeast, the ABC and PTR Transporter genes were synthesized by the TWIST Co, cloned and expressed (individually) in the yeast expression vector pESC-URA (Agilent Technologies) for expression under the yeast native gal-10 promoter. Competent Saccharomyces cerevisiae (strain Y1HGold, CloneTech) cells were prepared, transformed by each of the resulting vector and selected on yeast synthetic media lacking Uracil as previously described [GietzR. D., Methods Mol. Biol. (2014) 1205:1-12].
An alternative method is to measure the yeast growth as a function of turbidity. Transformed yeast cells were grown on URA-glucose broth at 30° C. at 200 RPM, and after 24 hours 100 μl was used to inoculate 5 ml of URA-galactose broth in the same conditions till O.D.600 of 1.5. The yeast was further diluted to OD600=0.05 with 10 ml URA-galactose, and divided into two 5 ml aliquots into separate 50 ml falcon tubes. The first falcon (control) was added 78 μl acetonitrile (the solvent that the CBD was dissolved in), and the second one was added 78 μl CBD solution in acetonitrile (final CBD concentration=0.5 mM). […]

B1: 796-3: Cannabis terpene synthase gene product, amino acid SEQ ID NO: 23 (protein)
chain: MDTQRKLQAEQLSCPTKSHELIFDHKSDHQRRSANYTPTIWKYDFLESLNNKYDSEEYKKRSEKLIEDVRHNIVETKDLKGMLELINTIRKLSLTYHFEDEVKKVLDKISSSNYYYNNKDIKDPRLVGDDLYLAALYFRLLRLHGYQVSQDIFVGYNSVDYKKGGGTHNITSTEVKVMIELLEASHVAFECEDTLTEAKALMEENLKIAFPDNCNKYIPKHEVVHALELPSHWRVQWFDVKWQIEAYRQHGDPDTNTTTTTSLLVDLAKLNFNIIQATLQKDLRELSSWWKNVGLSEKLEFARDRLVESFMCTVGLAFQPEYKSLRKCLTKVVNFILIVDDVYDVYGSLEELRHFTNAVNRWDVRETEELPDCMKICFQALYHTTCEIASEIETKNGCKLVLPNLKGAWTDFCKSLLMEAEWYHKGYIPSLEEYLSNAWISSSGPLLLLHSYLAMPNQTNTASSLDISKDLVYNISLIIRLCNDLGTSAAEQERGDAASSIVCYMQETKSSEEEARKHIREMIRKTWKKINKTCFSTCGSSSLSLSFIDIALNTARVAHSLYQSGDAFSAQHTDYKTHILSLLVHPLIPNK
modifications: Terpene Synthase Gene Amino acid sequence of the 45 identified gene products
- Monoterpenes produced with GPP [1]: geraniol

B2: 792-7: Cannabis terpene synthase gene product, amino acid SEQ ID NO: 12 (protein)
chain: MSPCEATIDEKRPNMPKFTPTIWGDYFMSSASNHHHSSLMETMENNNKESYEKIIEMKEQVKNKLLHGLHPLENPLETLEYIDDIQRLGLSYYFENEIEQNLEQFHNNYQNLIDFGDNNLYADALCFRLLRQQGYNIACDIFDKYKNEKGKFKESISSDIRGMLNLYEAAQMRVHGEKILDEALIFTTTHLESSVKTCQLSSPYLDLVKHALMHPIRKSLQRREARLYISLYHQLPSHEEILLTLAKLDFNLLQKLHQKELSYITRWWKEFDYKSKHSFIKDRIVECYFWVYGVFFEAETSQIRLIITKLIAILTIIDDAYDSFGTLEELEPFTQAIERWDICAIDTLPEYMKIFYMKLLEIYNEIEQFSKERSYCPSYAKKGVQSLIRAYFKEAKWLHTKYIPTLDEYMPVGVDSAGSFMLISMVFIGMGDIVTKHSMDWIFSNPQPKIIQTMAIVGRVMNDIGYHKSERKKSSGEIVASTVECYMKQYGVTGEEAIEKLSEQVKDSWKDLNEDLLNPITIPRPLLMQVLKLVRVNHEIYREGDGFTQPTLLKNLIHSLIINPIDF
modifications: Terpene Synthase Gene Amino acid sequence of the 45 identified gene products
- Monoterpenes produced with GPP [1]: beta-myrcene/geraniol

B3: 795-1: Cannabis terpene synthase gene product, amino acid SEQ ID NO: 18 (protein)
chain: MITGVISSSTTIFKEQPEAIVRRSGNYKPTLWDAHFFKSLQVIYTEESYGKRINELKEDVRRILEKEAENPLVKLEQINDLSRLGISYHFEDQIKTILNLTFNNNNALWKKDNLYATALHFKLLRQYGFNPVSSEVFNAFKDQKKEFKESLSKDVKGMVCLYEASFYSFRGEPILDEARDFTTKHLKQYLMTRQCQTKSVDHDDDHDLVKLVEHALDLPLHWRLPRLEARWFIDMYAERNYDMNPTFLDFAKLDYNFVQSAYQKELKYISRWWSGSRLTERLPFARDRVVEIFYSAVALKYEAEFGFVRTVMTKIGLLLTLMDDIYDVYGTLDELQLFLGAIERWNINELDQLPDYMKILFVAFYNNVNEISYYVLKENGIHIIKYLKKALGDLCKCYMEEAKWFHSGHIPSLEEFIENGWKSITIPLCLIYHYCLITTSITEQDMEHLLQYPTILRVSGTVFRFIDDLGTSSDELERGDNPSSIQCYMREKGVSENESREHIWNLISEGWKEINEVKASNSPYSQVFIESAIDFVRGAMEMYHKGDGFGTNQDRYLKTKVVNMFFDPIPI
modifications: Terpene Synthase Gene Amino acid sequence of the 45 identified gene products
- Monoterpenes produced with GPP [1]: geraniol

B4: T-AG2575-2: Cannabis ABC-G transporter gene product, amino acid SEQ ID NO: 56 (protein)
chain: MEVGDLYRAGNSLRNISLRSSTSSVWRGNNNNNNNKDEYFSKSRREDDINDEEALTWAALEKLPTYDRLRKGILTTSKGETTEVDVINLGFKQRKDLLQRLVNVADEDNESFLLKLKQRIQTVGIDLPTIEVRFENVKVEADVHVGSRALPSFINFCINIIEMLVSFLPILKSKKKHVTILDDVSGAIKPGRLTLLLGPPSSGKTTLLLTLAGKLASELKFSGRVTYNGHEMNEFIPQRTAAYISQHDVHIGEMTVRETLSFSARCQGVGTRYEMLAELSRREKEANIKPDPDIDIFMKATSTEGQKSSVVTDYVLKILGLEVCADTVVGDEMLRGISGGQRKRVTTGEMLVGPSGVLFMDEISTGLDSSTTYQIVNSLKQYVHIFNGTNVISLLQPAPETYDLFDDIILLSDGHIVYQGPRENVLEFFEFTGFKCPERKAIADFLQEVTSKKDQAQYWTRGDEAYRFVSAKEFVEAFKSFHVGQKIREYLSTPFDKTKSHPAALTTKNFGLNKMELLKACMSREYLIMKRNSFVHIFKIVQLSVMGLIHGTLFLRTKMHHRTLEDGTIYLGSLFFAALMIMFNGMSEIPMTIAKLPVFYKQRDLQFFPAWAYAVPSMLFKVPIAFLEVAVWIILTYYTTGLEPSVVRMFRLYFILVIVNQMASGLFRSIAALSRNMIIANTFGAFSLLLLFVLGGFVLSRDDINSGWIWAYWVTPLMYGQTGILVNEFRGSKWNKVTPNSTETLGIQVLKSKGFFTDSYWYWLGFGVLVAYTVLFNILYTLALNYLNSIEKSQALSNEDPENNDHEIQVGRETRTNEIQQTSSINNTGENQSKKKGMILPFEPHSITFNDVIYSVDMPQAMKNQGVVEDKLVLLKGVSGSFRPGVLTALMGISGAGKTTLMDVLAGRKTGGYIEGDIRISGYPKKQETFARISGYCEQNDIHSPHVTVYESLLYSAWLRLPTEVDSEKRKMFIEEVMELVELTPLRQALVGLPGVSGLSTEQRKRLTIAVELVANPSIIFMDEPTSGLDARAAAIVMRTVRNTVDTGRTVVCTIHQPSIDIFEAFDELFLMKRGGEEIYVGPLGRHSCHLINYFEAIEGVSKIKNGYNPGTWMLEVSSSAQEIALGVDFANIYKNSELCKRNKDLIKELSSPAPGSKDLYFPTQFSRSLNTQCIACLWKQRQSYWRNPLYTAVRFMFTTFIALIFGTVFWDLGSKRSNIQDLSNALGSMYCAVLFIGIQNASSVQPVVSVERSVFYREKAAGMYSAFPYSFGQLVVEIPYILCQSVVYCLIVYAMIGFEWTAIKFFWFLFFSFFSMLYFTFYGMMAVGITPNNHIASIVSSAFYSVWNLFSGFIIPRTRMPVWWKWYYWGCPVSWTLYGLLVSQYGDVDDVINAVTGETVKQYLRSYLGYKHDFIGVVAVVNVLFALLFGSIFAFSVKILNFQNR
modifications: ABC+PTR Transporter amino acid sequence (of the 12 identified gene products)
- inhibition of yeast growth in response to CBD, transporter-expressing yeast vs control yeast [2]: reduced inhibition of growth

From patent US20220256794A1, “TERPENE SYNTHASES AND TRANSPORTERS” (The State of Israel, Ministry of Agriculture & Rural …, priority 2019, published 2022)
